Measured values as given in publication PMC9381478, “A context-dependent and disordered ubiquitin-binding motif” (Cellular and Molecular Life Sciences: CMLS, 2022).
Like-named read-outs stand apart in the source and are kept apart here.

Assays:
[1] = molecular target: S. pombe ubiquitin with an N-terminal 6xhistidine-tag, TEV-cleavage site and an N-terminal free cysteine (S. pombe) (UniProt P0CG72); test: NMR titration; 100 µM 15N-ubiquitin, unlabelled peptide or protein added or titrated (peptides to 1 mM, WT Dss1 peptide to 5 mM); 20 mM NaH2PO4, 150 mM NaCl, 5 mM TCEP, pH 7.5; CSPs of 1H-15N-HSQC, global fit to a one-site model
SUMO (Homo sapiens) [2] = molecular target: SUMO (Homo sapiens) (UniProt P63165); settings: cited from earlier work
Sequence of SUMO (Homo sapiens) (P63165 2-97): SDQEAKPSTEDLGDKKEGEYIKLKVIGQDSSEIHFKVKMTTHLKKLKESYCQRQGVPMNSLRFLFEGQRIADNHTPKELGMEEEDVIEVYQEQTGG

SUMO (Homo sapiens) [3] = molecular target: SUMO (Homo sapiens) (UniProt P63165); settings: cited from earlier work; remark: listed apart in the source
ubiquitin [4] = molecular target: ubiquitin (UniProt P0CG48); settings: cited from earlier work
ubiquitin [5] = molecular target: ubiquitin (UniProt P0CG48); settings: cited from earlier work; remark: listed apart in the source

Sequence of Vps27 UIM (P40343 258-277): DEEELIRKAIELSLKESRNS
Sequence of RABEX5 UIM (Q9UJ41 48-74): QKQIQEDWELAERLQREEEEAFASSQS

**Q.** Which Kd [1] does the source give for “Dss1 DMD (from UniProt O14140 1-71) (natural protein)” here?
**A.** Its Kd is 25 µM.

**Q.** Which Kd [1] does the source give for “Dss1 DWD (from UniProt O14140 1-71) (natural protein)” here?
**A.** The Kd was 300 µM.

**Q.** Which Kd (SUMO (Homo sapiens) [2]) does the source give for PIASX (from UniProt O75928) here?
**A.** The Kd was 1 µM.

**Q.** Which Kd (SUMO (Homo sapiens) [3]) does the source give for PML-P (from UniProt P29590) here?
**A.** The Kd was 100 µM.

**Q.** For RABEX5 UIM (from UniProt Q9UJ41), which Kd (ubiquitin [4]) is on record?
**A.** The Kd was 100 µM.

**Q.** For “Spd1 peptide (15-mer with the DisUBM of S. pombe Spd1)”, which Kd [1] is on record?
**A.** The Kd was 3100 µM.

**Q.** Which Kd (ubiquitin [5]) does the source give for Vps27 UIM (from UniProt P40343) here?
**A.** Its Kd is 20 µM.
